B1: array2.68 (peptide)
peptide: VEGYRLFQQAS
modifications: not checked
B2: array2.80 (peptide)
peptide: VEGYRLFEEAS
modifications: not checked
B3: array2.101 (peptide)
peptide: VEGYRLFEKAL
modifications: not checked
B4: array2.73 (peptide)
peptide: VEGYRLFEKIS
modifications: not checked
B5: array2.66 (peptide)
peptide: VEGYRLFQKES
modifications: not checked
B6: array2.92 (peptide)
peptide: VEGYRLFQKAL
modifications: not checked
B7: array2.100 (peptide)
peptide: VEGYRLFEKIL
modifications: not checked
B8: array2.65 (peptide)
peptide: VEGYRLFQKAS
modifications: not checked
B9: array2.5 (peptide)
peptide: VTGYRLFKQAS
modifications: not checked
B10: array2.89 (peptide)
peptide: VEGYRLFKEAL
modifications: not checked
B11: array2.58 (peptide)
peptide: VEGYRLFKQIS
modifications: not checked
B12: array2.23 (peptide)
peptide: VTGYRLFEQAS
modifications: not checked
B13: array2.75 (peptide)
peptide: VEGYRLFEKES
modifications: not checked
B14: array2.13 (peptide)
peptide: VTGYRLFQQIS
modifications: not checked
B15: array2.91 (peptide)
peptide: VEGYRLFQKIL
modifications: not checked
B16: array2.67 (peptide)
peptide: VEGYRLFQQIS
modifications: not checked
B17: array2.20 (peptide)
peptide: VTGYRLFEKAS
modifications: not checked
B18: array2.93 (peptide)
peptide: VEGYRLFQKEL
modifications: not checked
B19: array2.63 (peptide)
peptide: VEGYRLFKEES
modifications: not checked
B20: array2.84 (peptide)
peptide: VEGYRLFKKEL
modifications: not checked
B21: array2.71 (peptide)
peptide: VEGYRLFQEAS
modifications: not checked
B22: array2.22 (peptide)
peptide: VTGYRLFEQIS
modifications: not checked
B23: array2.19 (peptide)
peptide: VTGYRLFEKIS
modifications: not checked
B24: array2.61 (peptide)
peptide: VEGYRLFKEIS
modifications: not checked
B25: array2.7 (peptide)
peptide: VTGYRLFKEIS
modifications: not checked
B26: array2.77 (peptide)
peptide: VEGYRLFEQAS
modifications: not checked
B27: array2.62 (peptide)
peptide: VEGYRLFKEAS
modifications: not checked
B28: array2.82 (peptide)
peptide: VEGYRLFKKIL
modifications: not checked
B29: array2.94 (peptide)
peptide: VEGYRLFQQIL
modifications: not checked
B30: array2.86 (peptide)
peptide: VEGYRLFKQAL
modifications: not checked
B31: array2.60 (peptide)
peptide: VEGYRLFKQES
modifications: not checked
B32: array2.90 (peptide)
peptide: VEGYRLFKEEL
modifications: not checked
B33: array2.10 (peptide)
peptide: VTGYRLFQKIS
modifications: not checked
B34: array2.16 (peptide)
peptide: VTGYRLFQEIS
modifications: not checked
B35: array2.14 (peptide)
peptide: VTGYRLFQQAS
modifications: not checked
B36: array2.98 (peptide)
peptide: VEGYRLFQEAL
modifications: not checked
B37: array2.96 (peptide)
peptide: VEGYRLFQQEL
modifications: not checked
B38: array2.88 (peptide)
peptide: VEGYRLFKEIL
modifications: not checked
B39: array2.2 (peptide)
peptide: VTGYRLFKKAS
modifications: not checked
B40: array2.102 (peptide)
peptide: VEGYRLFEKEL
modifications: not checked
B41: array2.83 (peptide)
peptide: VEGYRLFKKAL
modifications: not checked
B42: array2.87 (peptide)
peptide: VEGYRLFKQEL
modifications: not checked
B43: array2.55 (peptide)
peptide: VEGYRLFKKIS
modifications: not checked
B44: array2.6 (peptide)
peptide: VTGYRLFKQES
modifications: not checked
B45: array2.15 (peptide)
peptide: VTGYRLFQQES
modifications: not checked
B46: array2.18 (peptide)
peptide: VTGYRLFQEES
modifications: not checked
B47: array2.70 (peptide)
peptide: VEGYRLFQEIS
modifications: not checked
B48: array2.8 (peptide)
peptide: VTGYRLFKEAS
modifications: not checked
B49: array2.24 (peptide)
peptide: VTGYRLFEQES
modifications: not checked
B50: array2.56 (peptide)
peptide: VEGYRLFKKAS
modifications: not checked
B51: array2.64 (peptide)
peptide: VEGYRLFQKIS
modifications: not checked
B52: array2.21 (peptide)
peptide: VTGYRLFEKES
modifications: not checked
B53: array2.85 (peptide)
peptide: VEGYRLFKQIL
modifications: not checked
B54: array2.12 (peptide)
peptide: VTGYRLFQKES
modifications: not checked
B55: array2.1 (peptide)
peptide: VTGYRLFKKIS
modifications: not checked
B56: array2.78 (peptide)
peptide: VEGYRLFEQES
modifications: not checked
B57: array2.104 (peptide)
peptide: VEGYRLFEQAL
modifications: not checked
B58: array2.11 (peptide)
peptide: VTGYRLFQKAS
modifications: not checked
B59: array2.95 (peptide)
peptide: VEGYRLFQQAL
modifications: not checked
B60: array2.76 (peptide)
peptide: VEGYRLFEQIS
modifications: not checked
B61: array2.59 (peptide)
peptide: VEGYRLFKQAS
modifications: not checked
B62: array2.9 (peptide)
peptide: VTGYRLFKEES
modifications: not checked
B63: array2.74 (peptide)
peptide: VEGYRLFEKAS
modifications: not checked
B64: array2.57 (peptide)
peptide: VEGYRLFKKES
modifications: not checked

Biological target: T1, NLpoly11S
T1 chain: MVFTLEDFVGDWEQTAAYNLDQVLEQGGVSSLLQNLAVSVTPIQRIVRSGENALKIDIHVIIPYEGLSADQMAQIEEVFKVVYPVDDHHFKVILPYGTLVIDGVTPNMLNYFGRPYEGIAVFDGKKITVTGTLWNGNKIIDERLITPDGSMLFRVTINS
Assay: luminescence complementation titration, one-site specific binding fit

| Binder | Bmax | Kd |
| --- | --- | --- |
| B1 | 3750 | 20 µM |
| B2 | 383000 | 1420 µM |
| B3 | 6370 | 12.6 µM |
| B4 | 22500 | 2.15 µM |
| B5 | 3490 | 2.87 µM |
| B6 | 12300 | 2.02 µM |
| B7 | 35000 | 10.6 µM |
| B8 | 10600 | 1.93 µM |
| B9 | 31000 | 1.95 µM |
| B10 | 5570 | 42.4 µM |
| B11 | 21500 | 2.09 µM |
| B12 | 3820 | 4.17 µM |
| B13 | 1170 | 2.97 µM |
| B14 | 19400 | 0.876 µM |
| B15 | 50500 | 2.08 µM |
| B16 | 5220 | 8.14 µM |
| B17 | 36300 | 1.79 µM |
| B18 | 4090 | 1.69 µM |
| B19 | 17300 | 220 µM |
| B20 | 7830 | 1.41 µM |
| B21 | 44900 | 24 µM |
| B22 | 121000 | 10.8 µM |

| Binder | Bmax | Kd |
| --- | --- | --- |
| B23 | 123000 | 0.605 µM |
| B24 | 5460 | 14.4 µM |
| B25 | 32000 | 4.44 µM |
| B26 | 26900 | 48.3 µM |
| B27 | 2380 | 22.1 µM |
| B28 | 43400 | 0.563 µM |
| B29 | 2280 | 9.39 µM |
| B30 | 2300 | 2.27 µM |
| B31 | 4350 | 10.6 µM |
| B32 | 12200 | 101 µM |
| B33 | 113000 | 0.0812 µM |
| B34 | 1320 | 2.56 µM |
| B35 | 4350 | 1.11 µM |
| B36 | 2700 | 99.9 µM |
| B37 | 105000 | 99.4 µM |
| B38 | 9830 | 17.8 µM |
| B39 | 104000 | 0.241 µM |
| B40 | 962 | 5.79 µM |
| B41 | 20800 | 1.59 µM |
| B42 | 1790 | 12.6 µM |
| B43 | 42400 | 0.078 µM |
| B44 | 5010 | 1.35 µM |

| Binder | Bmax | Kd |
| --- | --- | --- |
| B45 | 5200 | 7.49 µM |
| B46 | 5110 | 67.3 µM |
| B47 | 29200 | 230 µM |
| B48 | 3930 | 2.57 µM |
| B49 | 1830 | 7.83 µM |
| B50 | 15900 | 0.641 µM |
| B51 | 36500 | 0.586 µM |
| B52 | 8620 | 1.49 µM |
| B53 | 31400 | 10.3 µM |
| B54 | 17200 | 0.417 µM |
| B55 | 135000 | 0.0133 µM |
| B56 | 39400 | 252 µM |
| B57 | 9880 | 336 µM |
| B58 | 80900 | 0.749 µM |
| B59 | 38200 | 18.8 µM |
| B60 | 18000 | 52.8 µM |
| B61 | 2300 | 2.09 µM |
| B62 | 1450 | 3.86 µM |
| B63 | 3810 | 4.14 µM |
| B64 | 3370 | 0.891 µM |
